Assay results: PMC3371134 (Journal of Neurochemistry, 2012)

Molecular target: calmodulin-Sepharose (calmodulin coupled to Sepharose beads) (UniProt P62157 1-149)
Assay: pull-down

binding result: binds
Binder: APETEKAALAIQGKFRRFQKRKKDS [Pcp4l1 IQ motif synthetic peptide]
